Data taken from IntAct's records for PubMed 22575959.

Biological target: rspo1_human RSPO1 (UniProt Q2MKA7)
Sequence (Q2MKA7 whole entry): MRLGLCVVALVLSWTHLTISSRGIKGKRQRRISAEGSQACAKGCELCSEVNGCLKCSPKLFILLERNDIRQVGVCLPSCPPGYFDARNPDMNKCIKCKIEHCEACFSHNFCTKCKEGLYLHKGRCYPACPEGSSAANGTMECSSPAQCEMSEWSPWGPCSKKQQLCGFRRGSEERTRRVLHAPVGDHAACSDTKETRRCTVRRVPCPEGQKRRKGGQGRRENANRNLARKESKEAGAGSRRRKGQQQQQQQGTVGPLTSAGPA

For “E3 ubiquitin-protein ligase ZNRF3 (Homo sapiens), Q9ULT6 P103A”, the “effect of a mutation on the interaction” value was “disrupting interaction strength”.
